Consider five molecules from paper PMC13581288, “The chromokinesin Kid (KIF22) forms a homodimer, moves processively along microtubules, and transports double-stranded DNA” (eLife, 2024).

Data set [1] addresses KIF1AMD-XKidSt (chimera of the KIF1A motor domain with the neck linker and coiled-coil domain of XKid) (not stated | Xenopus). Briefly: SEC; Superdex 200 Increase 10/300 GL on an NGC system; micromolar protein concentrations; UNC-104(1-653)-sfGFP (or mScarlet for XKidCC-mScarlet) run as size marker. In general terms: Size exclusion chromatography separates by hydrodynamic size, large species first.

Data set [2] concerns the molecule itself. Described as above.

For the molecule “KIF1AMD-XKidSt (chimera of the KIF1A motor domain with the neck linker and coiled-coil domain of XKid)”, the stoichiometry N (commonly a count of units in the complex or per binding partner) in data set [1] was 2.

B1: XKid(1-496)-mScarlet (domain or fragment, Xenopus, UniProt Q9I869 1-496, looked up)
chain: MVLTGPLQRESVSMAKRVSMLDQHKKSSCARVRVAVRLRPYMDEKDEAKATTVCVRGLDSQSLEIVNWRNQLETMQYQFDAFYGDSASQREIYMGSVCHILPHLLIGQNASVFAYGPTGAGKTHTMLGNPNQPGVIPRAVRDLLQMSRTAASAPENENWTYTINMSYVEIYQEKVMDLLEPKNKDLPIREDKDHNILIPGVTQKMINSFADFDEHFIPASQNRTVASTKLNDRSSRSHAVLLIKVQKSQQVVPFRQLTGKLYLIDLAGSEDNRRTGNQGIRLKESGAINSSLFTLSKVVDALNQGLPRIPYRDSKLTRLLQDSLGGSAHSVMITNIAPEQTYYFDTLTALNFAAKSKQIINKPFSQETTQTVVQPAMKRPREETGHIAGSQKRKKSKNDSTESSPNSSMDTAGKQKLNLATLDPAVVERLLKLDKILTEKGKKKAQLLSTPKRERMALLKKWEESQMEIERLKEKQKELEQKAMEAEARLEKSNNS
notes: deletion mutant made by PCR-based mutagenesis; also called XKid(1-497); not shown: mScarlet, C-terminal, kept
On to B1, for which the “stoichiometry N” value in data set [2] amounted to 2.

B2: KIF1A(1-393)LZ (other)
chain: MAGASVKVAVRVRPFNSREMSRDSKCIIQMSGSTTTIVNPKQPKETPKSFSFDYSYWSHTSPEDINYASQKQVYRDIGEEMLQHAFEGYNVCIFAYGQTGAGKSYTMMGKQEKDQQGIIPQLCEDLFSRINDTTNDNMSYSVEVSYMEIYCERVRDLLNPKNKGNLRVREHPLLGPYVEDLSKLAVTSYNDIQDLMDSGNKARTVAATNMNETSSRSHAVFNIIFTQKRHDAETNITTEKVSKISLVDLAGSERADSTGAKGTRLKEGANINKSLTTLGKVISALAEMDSGPNKNKKKKKTDFIPYRDSVLTWLLRENLGGNSRTAMVAALSPADINYDETLSTLRYADRAKQIRCNAVINEDPNNKLIRELKDEVTRLRDLLYAQGLGDITDLEDKVEELLSKNYHLENEVARL
Consider B2, for which the “stoichiometry N” value in data set [2] stood at 2.

B3: full-length Xenopus Kid tagged with mScarlet (XKidFL-mScarlet) (natural protein, UniProt Q9I869 1-651, looked up)
chain: MVLTGPLQRESVSMAKRVSMLDQHKKSSCARVRVAVRLRPYMDEKDEAKATTVCVRGLDSQSLEIVNWRNQLETMQYQFDAFYGDSASQREIYMGSVCHILPHLLIGQNASVFAYGPTGAGKTHTMLGNPNQPGVIPRAVRDLLQMSRTAASAPENENWTYTINMSYVEIYQEKVMDLLEPKNKDLPIREDKDHNILIPGVTQKMINSFADFDEHFIPASQNRTVASTKLNDRSSRSHAVLLIKVQKSQQVVPFRQLTGKLYLIDLAGSEDNRRTGNQGIRLKESGAINSSLFTLSKVVDALNQGLPRIPYRDSKLTRLLQDSLGGSAHSVMITNIAPEQTYYFDTLTALNFAAKSKQIINKPFSQETTQTVVQPAMKRPREETGHIAGSQKRKKSKNDSTESSPNSSMDTAGKQKLNLATLDPAVVERLLKLDKILTEKGKKKAQLLSTPKRERMALLKKWEESQMEIERLKEKQKELEQKAMEAEARLEKSNNSDLSDSSVSENTFRAPLRGRNTSTAKVKKVLRVLPMQGNSQLQSTVEEGIPVFEKKKKKKQVTCEGLENQPTWEMNMRTDLLESGKERILKLLNTGSVKELKSLQRIGDKKAKLIIGWREVNGPFKNVEELACLEGISAKQVSSFIKANIMSSIAS
notes: Kid (Kif22.S), Xenopus, full length; cDNA corresponding to GenBank BC070549.1; also called XKid-mScarlet; Full-length XKid; not shown: mScarlet, C-terminal, kept
As for B3, the “stoichiometry N” value in data set [2] came to 2.

B4: full-length human Kid tagged with mNeonGreen (hKidFL-mNeonGreen) (natural protein, UniProt Q14807 1-665, looked up)
chain: MAAGGSTQQRRREMAAASAAAISGAGRCRLSKIGATRRPPPARVRVAVRLRPFVDGTAGASDPPCVRGMDSCSLEIANWRNHQETLKYQFDAFYGERSTQQDIYAGSVQPILRHLLEGQNASVLAYGPTGAGKTHTMLGSPEQPGVIPRALMDLLQLTREEGAEGRPWALSVTMSYLEIYQEKVLDLLDPASGDLVIREDCRGNILIPGLSQKPISSFADFERHFLPASRNRTVGATRLNQRSSRSHAVLLVKVDQRERLAPFRQREGKLYLIDLAGSEDNRRTGNKGLRLKESGAINTSLFVLGKVVDALNQGLPRVPYRDSKLTRLLQDSLGGSAHSILIANIAPERRFYLDTVSALNFAARSKEVINRPFTNESLQPHALGPVKLSQKELLGPPEAKRARGPEEEEIGSPEPMAAPASASQKLSPLQKLSSMDPAMLERLLSLDRLLASQGSQGAPLLSTPKRERMVLMKTVEEKDLEIERLKTKQKELEAKMLAQKAEEKENHCPTMLRPLSHRTVTGAKPLKKAVVMPLQLIQEQAASPNAEIHILKNKGRKRKLESLDALEPEEKAEDCWELQISPELLAHGRQKILDLLNEGSARDLRSLQRIGPKKAQLIVGWRELHGPFSQVEDLERVEGITGKQMESFLKANILGLAAGQRCGAS
notes: Kid (KIF22), human, full length; cDNA corresponding to GenBank DQ895829.2; also called hKid-mNeonGreen; hKidFL-mNG; not shown: mNeonGreen, C-terminal, kept
As to B4, the “stoichiometry N” value in data set [2] came to 2.
